Measurements published in patent publication US20260166166A1 (CURON BIOPHARMACEUTICAL SHANGHAI, published 2026).
Changes are numbered by the printed parent chain. One block for each binder: values may come before it.

Molecular target: T1, L1 cell adhesion molecule (L1CAM) on the surface of HeLa cells (human, UniProt P32004 20-1257)
T1 construct: whole, on cells; Endogenous L1CAM of HeLa cells ("HeLa cells that highly express human L1CAM"); also called CD171; human L1CAM
Test: flow cytometry on HeLa cells, MFI dose-response
Method: Humanized anti-L1CAM antibodies (Human IgG1-Kappa) are diluted in complete medium, in a four-fold serial dilution, with 7 concentration gradient points.
HeLa cells are cultured in DMEM complete medium (Corning, 10-013-CVR) containing 10% FBS (Gibco, 10099-141) and 100 U/mL penicillin-streptomycin mixture (Thermofisher, 15140122). When the cell coverage in the culture container reaches 80-90%, TrypLE (Thermofisher, 12604-013) is used to digest the HeLa cells from the culture container, and they are seeded in a 96-well plate (AXYGEN, P-96-450V-C) at a density of 2.2×10⁶ cells/ml, with 100,000 cells (45 μL complete medium) per well. Then, 5 μL of the antibody dilution is added to each well, mixed gently, and the 96-well plate is incubated at 4° C. for 1 hour. Then, 150 μL of PBS (Corning, 21-040-CVC) containing 2% FBS is added to each well, centrifuged at 1400 rpm for 4 minutes, the supernatant is removed, and washed once again. Then, 50 μL of Alexa Fluor 647-labeled goat anti-human fluorescent secondary antibody (Jacksonimmuno, 109-605-088) diluted at 1:800 is added to each well, and the 96-well plate is incubated at 4° C. for 0.5 hours. The cells are washed twice with PBS solution containing 2% FBS, then resuspended in 120 μL of PBS, and the fluorescent signal on the cell surface is detected using a flow cytometer (BD FACS Celesta), obtaining and the median fluorescence intensity (MFI). A dose-response curve is generated, and the half-maximal effective concentration (EC50) is calculated using non-linear regression with GraphPad software.

T1 sequence (P32004 20-1257): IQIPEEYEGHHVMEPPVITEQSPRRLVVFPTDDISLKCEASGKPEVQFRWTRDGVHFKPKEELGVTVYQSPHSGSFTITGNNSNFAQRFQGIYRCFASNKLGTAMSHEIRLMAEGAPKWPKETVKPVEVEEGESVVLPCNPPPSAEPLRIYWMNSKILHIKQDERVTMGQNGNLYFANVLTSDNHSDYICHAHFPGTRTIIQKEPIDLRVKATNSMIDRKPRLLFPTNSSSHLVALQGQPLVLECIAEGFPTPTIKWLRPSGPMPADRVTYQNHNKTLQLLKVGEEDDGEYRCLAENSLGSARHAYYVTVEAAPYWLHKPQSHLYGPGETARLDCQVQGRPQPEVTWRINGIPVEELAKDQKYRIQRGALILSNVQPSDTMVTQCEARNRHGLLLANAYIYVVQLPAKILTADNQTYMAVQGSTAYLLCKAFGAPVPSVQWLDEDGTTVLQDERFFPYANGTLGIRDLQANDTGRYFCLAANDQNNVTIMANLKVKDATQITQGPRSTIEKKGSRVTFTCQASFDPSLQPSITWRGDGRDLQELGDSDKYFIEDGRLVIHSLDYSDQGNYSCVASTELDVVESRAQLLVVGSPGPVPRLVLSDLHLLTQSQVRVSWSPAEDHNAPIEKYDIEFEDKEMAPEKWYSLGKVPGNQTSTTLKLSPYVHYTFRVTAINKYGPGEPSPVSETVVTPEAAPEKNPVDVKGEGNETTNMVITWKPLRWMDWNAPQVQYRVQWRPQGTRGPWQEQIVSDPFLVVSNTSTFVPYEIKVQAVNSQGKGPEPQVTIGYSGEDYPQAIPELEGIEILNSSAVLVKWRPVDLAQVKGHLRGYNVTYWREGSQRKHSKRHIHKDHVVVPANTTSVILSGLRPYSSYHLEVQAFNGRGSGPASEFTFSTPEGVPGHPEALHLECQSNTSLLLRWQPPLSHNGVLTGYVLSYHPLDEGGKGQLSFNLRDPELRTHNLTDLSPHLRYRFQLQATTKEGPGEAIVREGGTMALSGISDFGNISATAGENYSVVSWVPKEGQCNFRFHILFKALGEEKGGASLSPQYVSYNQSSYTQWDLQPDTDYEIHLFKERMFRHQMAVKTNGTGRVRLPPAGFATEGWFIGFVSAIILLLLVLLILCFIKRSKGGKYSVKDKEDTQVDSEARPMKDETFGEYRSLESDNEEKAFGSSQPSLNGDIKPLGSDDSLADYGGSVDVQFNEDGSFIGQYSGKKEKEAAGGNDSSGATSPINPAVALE

B1: hz26A12C1H4L3 (antibody, human IgG1, kappa, V domains shown)
VH: QVQLVQSGAEVKKPGSSVKVSCKASGYTFTNYWIQWVRQAPGQGLEWIGYINPSTYYSDYNQKFQGRVTLTADKSTSTAYMELSSLRSEDTAVYYCARRQFGLPLFDYWGQGTTVTVSS
VL: DIQMTQSPSSLSASVGDRVTITCRASQDVGTAVAWYQQKPGKVPKLLIYWASTLHSGVPSRFSGSGSGTDFTLTISSLQPEDVATYFCQQYSNYPLTFGGGTKVEIKR
notes: also called humanized anti-L1CAM antibody
- EC50: 0.738 nM

B3: hz49E10H1H5L6 (antibody, human IgG1, kappa, V domains shown)
VH: DVQLQESGPGLVKPSQTLSLTCTVSGGSISSDYAWNWIRQPPGKGLEWMGYITYSGTTTYNPSLKSRITISRDTSKNQFSLKLSSVTAADTAVYYCARDHYGNYAYFDYWGQGTTVTVSS
VL: DIQMTQSPSSLSASVGDRVTITCRASSSVSFMHWYQQKPGKAPKPWIYASSNLVSGVPSRFSGSGSGTDFTLTISSLQPEDFATYYCQQWSSNPSTFGGGTKVEIKR
notes: as for B1
- EC50: 0.404 nM

B5: hz103E9B3H5L5 (antibody, human IgG1, kappa, V domains shown)
VH: EVQLVQSGAEVKKPGASVKVSCKASGYTFTSYTMHWVRQAPGQGLEWMGDINPNYGGTSYNEKFKDRVTMTTDTSTSTAYMELRSLRSDDTAVYYCAREGATGTWYFDVWGQGTTVTVSS
VL: B3 VL with R24S, H33F, W46L, A49L, S50T, V54A, S91R, S95P
notes: as for B1
- EC50: 1.68 nM

Continued by falling EC50, values first:

- EC50: 1.48 nM
B6: hz103E9B3H6L5 (antibody, human IgG1, kappa, V domains shown)
VH: B5 VH with V68A
VL: B3 VL with R24S, H33F, W46L, A49L, S50T, V54A, S91R, S95P
notes: as for B1

- EC50: 1.27 nM
B2: hz46F1D5H4L3 (antibody, human IgG1, kappa, V domains shown)
VH: B1 VH with N31R, I48M, Y56G, S58T, L70I, Q100H, F101L
VL: B1 VL with L11V, V43A, T53S, V83F
notes: as for B1

- EC50: 0.377 nM
B4: hz49E10H1H5L7 (antibody, human IgG1, kappa, V domains shown)
VH: B3 VH
VL: B3 VL with D1Q, F70Y
notes: as for B1
